Tested on: Escherichia coli TOP10
Assay: shrunken log2 fold change of peptide-encoding DNA abundance (4.5 h post-induction vs induction); higher = less antimicrobial activity (less host growth inhibition)
Details: time post-induction: 4.5 h; library: site-saturation at positions 5, 18, 19, 20
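Further: peptides expressed intracellularly from a pBAD plasmid library in pooled LB shake-flask culture, induced with 0.3% L-arabinose, DNA abundance read by NGS, three biological replicates, DESeq2 with apeglm shrinkage.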

Sequence	shrunken log2 fold change
RRIRPRPPRLPRPRPRPPSFPRP	0.262
RRIRRRPPRLPRPRPRPNYHPRP	-0.223
RRIRGRPPRLPRPRPRPFCRPRP	0.326
RRIRGRPPRLPRPRPRPEWIPRP	0.142
RRIRTRPPRLPRPRPRPCVGPRP	-0.013
RRIRHRPPRLPRPRPRPIAEPRP	-0.103
RRIRYRPPRLPRPRPRPLSSPRP	-0.214
RRIRIRPPRLPRPRPRPDQYPRP	-0.0181
RRIRMRPPRLPRPRPRPHKNPRP	0.195
RRIRWRPPRLPRPRPRPKAEPRP	-0.015
RRIRGRPPRLPRPRPRPGVGPRP	1.11
RRIRWRPPRLPRPRPRPDMAPRP	0.204
RRIRWRPPRLPRPRPRPFCHPRP	-0.0562
RRIRWRPPRLPRPRPRPYQIPRP	0.0326
RRIRYRPPRLPRPRPRPHRFPRP	0.0207
RRIRWRPPRLPRPRPRPVTPPRP	0.666
RRIRVRPPRLPRPRPRPRMNPRP	-0.0411
RRIRMRPPRLPRPRPRPPALPRP	1.13
RRIRARPPRLPRPRPRPQWEPRP	0.196
RRIRNRPPRLPRPRPRPFITPRP	-0.783

Sequence	shrunken log2 fold change
RRIRDRPPRLPRPRPRPLYCPRP	-0.333
RRIRHRPPRLPRPRPRPSWVPRP	-0.0882
RRIRYRPPRLPRPRPRPHMCPRP	-0.0704
RRIRSRPPRLPRPRPRPYLRPRP	-0.00709
RRIRNRPPRLPRPRPRPSKGPRP	-0.00183
RRIRSRPPRLPRPRPRPDMHPRP	-0.118
RRIRPRPPRLPRPRPRPGLLPRP	0.217
RRIRSRPPRLPRPRPRPSCLPRP	-0.585
RRIRGRPPRLPRPRPRPNMNPRP	0.255
RRIRCRPPRLPRPRPRPHKRPRP	0.0953
RRIRVRPPRLPRPRPRPFGYPRP	-0.425
RRIRVRPPRLPRPRPRPLAPPRP	0.169
RRIRDRPPRLPRPRPRPMNSPRP	-0.0173
RRIRVRPPRLPRPRPRPLGVPRP	-0.116
RRIRSRPPRLPRPRPRPIDWPRP	0.217
RRIRCRPPRLPRPRPRPQSSPRP	-0.103
RRIRIRPPRLPRPRPRPMLEPRP	0.0741
RRIRFRPPRLPRPRPRPSLAPRP	0.119
RRIRLRPPRLPRPRPRPHDFPRP	-0.205
RRIRIRPPRLPRPRPRPPNCPRP	-1.06

Sequence	shrunken log2 fold change
RRIRVRPPRLPRPRPRPCSYPRP	-0.0326
RRIRCRPPRLPRPRPRPKDSPRP	-0.198
RRIRLRPPRLPRPRPRPLCKPRP	-0.398
RRIRFRPPRLPRPRPRPCPHPRP	-0.135
RRIRERPPRLPRPRPRPWLPPRP	-0.0302
RRIRYRPPRLPRPRPRPQEWPRP	-0.000687
RRIRSRPPRLPRPRPRPWMVPRP	-0.267
RRIRLRPPRLPRPRPRPMFTPRP	-0.0806
RRIRLRPPRLPRPRPRPLPDPRP	0.327
RRIRLRPPRLPRPRPRPLIQPRP	-0.247
RRIRSRPPRLPRPRPRPIKLPRP	0.0994
RRIRWRPPRLPRPRPRPMYCPRP	0.0174
RRIRKRPPRLPRPRPRPMSIPRP	-0.0141
RRIRSRPPRLPRPRPRPIGAPRP	0.058
RRIRTRPPRLPRPRPRPMTYPRP	-0.0748
RRIRGRPPRLPRPRPRPTGHPRP	0.448
RRIRSRPPRLPRPRPRPRKMPRP	0.207
RRIRNRPPRLPRPRPRPNYAPRP	-0.178
RRIRQRPPRLPRPRPRPKGHPRP	-0.139
RRIRPRPPRLPRPRPRPFQLPRP	-0.0657
